Our source for the mean fluorescence intensity and mean ratio of fluorescence intensity (FI 588 nm/ FI 588 nm + FI 513 nm) values is paper doi:10.64898/2025.12.29.696898.

The target in this test is GFP-EBP2 (human) (UniProt Q99848). The test can be described thus: FRET or BRET. (Bioluminescence resonance energy transfer reports proximity on the nanometre scale.)
Chain of UniProt Q99848 (Q99848 whole entry): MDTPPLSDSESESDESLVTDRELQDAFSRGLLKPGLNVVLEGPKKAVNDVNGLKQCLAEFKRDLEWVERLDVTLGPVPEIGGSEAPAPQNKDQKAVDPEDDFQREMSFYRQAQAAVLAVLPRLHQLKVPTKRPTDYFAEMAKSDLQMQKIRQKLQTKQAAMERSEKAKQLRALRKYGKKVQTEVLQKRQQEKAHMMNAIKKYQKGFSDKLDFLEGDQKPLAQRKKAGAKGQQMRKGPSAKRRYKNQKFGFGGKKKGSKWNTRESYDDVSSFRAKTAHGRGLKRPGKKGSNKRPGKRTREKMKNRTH

On to “EBNA-1-DsRed (from UniProt P03211 1-641) (natural protein)”, for which the mean fluorescence intensity at 588 nm resulting from FRET was 167 and the mean ratio of fluorescence intensity (FI 588 nm/ FI 588 nm + FI 513 nm) worked out at 0.4.
